In US20220112244A1 (DOMPE FARMACEUTICI S P A, published 2022):
No end group written: not given here.

Molecular target: IL-17A (agonist in the IL-17RA/IL17RC dimerization assay) (UniProt Q16552 24-155)
Test: cell-based or functional assay

IL-17A (agonist in the IL-17RA/IL17RC dimerization assay), sequence (Q16552 24-155 limits assumed): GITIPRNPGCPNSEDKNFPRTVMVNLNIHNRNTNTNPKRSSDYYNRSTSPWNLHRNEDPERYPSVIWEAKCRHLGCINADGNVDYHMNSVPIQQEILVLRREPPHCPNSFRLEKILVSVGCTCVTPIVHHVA

Binder	IC50 in IL-17RA/IL7RC dimerization assay [nM]
Ac-VHVTIPADLWNWVRR-NH2 [peptide of SEQ ID NO: 119]	< 500
IMVTIPADLYEWIEEQ-{N‑acetylglucosamine} [BIO-2]	< 1000
Ac-VPGWGVMVTIPADLYEWIEE-NH2 [peptide of SEQ ID NO: 34]	< 1000
Ac-VMVTIPADLYEWIEERRRRRRRR-NH2 [peptide of SEQ ID NO: 30]	< 1000
Ac-GGKETWWETWVMVTIPADLYEWIEE-NH2 [peptide of SEQ ID NO: 33]	< 1000
Ac-VHVQIPADLWEWVRR-NH2 [peptide of SEQ ID NO: 113]	< 500
Ac-VHFQFPQDWWNWVRR-NH2 [peptide of SEQ ID NO: 139]	< 500
Ac-VHVTIPAEWWEWVRR-NH2 [peptide of SEQ ID NO: 123]	< 500
Ac-VHFTFPQDFWEWVRR-NH2 [peptide of SEQ ID NO: 125]	< 500
Ac-VHFQIPQDWWEWVRR-NH2 [peptide of SEQ ID NO: 137]	< 500
Ac-VHFQFPADLWEWFRR-NH2 [peptide of SEQ ID NO: 135]	< 500
Ac-VPGAGVMVTIPADLYEWIEE-NH2 [peptide of SEQ ID NO: 35]	< 1000
Ac-VHFTFPQDLWEWVRR-NH2 [peptide of SEQ ID NO: 124]	< 500
Ac-VHVTIPQDLWEWVRR-NH2 [peptide of SEQ ID NO: 115]	< 500
Ac-VPGKGVMVTIPADLYEWIEE-NH2 [peptide of SEQ ID NO: 36]	< 1000
Ac-IHVTIPADLWDWIRK-NH2 [peptide of SEQ ID NO: 9]	< 300
Ac-GGTWWTEWSQVMVTIPADLYEWIEE-NH2 [peptide of SEQ ID NO: 32]	< 1000
{capric acid}-IMVTIPADLYEWIEE [BIO-4]	< 1000
Ac-VHVTIPADLWEWFRR-NH2 [peptide of SEQ ID NO: 121]	< 500
Ac-VHVTIPADLWEFVRR-NH2 [peptide of SEQ ID NO: 120]	< 500
{N‑acetylglucosamine-N‑acetylmuramic acid}-IMVTIPADLYEWIEE [BIO-3]	< 1000
Ac-VHFTFPQDLWEWFRR-NH2 [peptide of SEQ ID NO: 129]	< 500

Binder	IC50 in IL-17RA/IL7RC dimerization assay [nM]
Ac-VHFTIPADLWEWVRR-NH2 [peptide of SEQ ID NO: 112]	< 500
Ac-ARKKAAKAVMVTIPADLYEWIEE-NH2 [peptide of SEQ ID NO: 31]	< 1000
Ac-VHVTIPADLYEWVRR-NH2 [peptide of SEQ ID NO: 118]	< 500
{N‑acetylmuramic acid}-IMVTIPADLYEWIEE [BIO-1]	< 1000
Ac-VHFTFPQDLWEFVRR-NH2 [peptide of SEQ ID NO: 128]	< 500
Ac-VHFQFPQDLWEFVRR-NH2 [peptide of SEQ ID NO: 140]	< 500
Ac-IHVTIPAELWDWINK-NH2 [peptide of SEQ ID NO: 5]	< 100
Ac-VHVTIPADFWEWVRR-NH2 [peptide of SEQ ID NO: 117]	< 500
Ac-VHFTFPQDLWNWVRR-NH2 [peptide of SEQ ID NO: 127]	< 500
Ac-VHFTIPQDLYEWVRR-NH2 [peptide of SEQ ID NO: 126]	< 500
{ascorbic acid}-IMVTIPADLYEWIEE [BIO-5]	< 1000
Ac-IHVTIPADLYDWINK-NH2 [peptide of SEQ ID NO: 6]	< 400
Ac-VHFQFPADLWEFVRR-NH2 [peptide of SEQ ID NO: 134]	< 500
Ac-VHFQFPQDWWEWFRR-NH2 [peptide of SEQ ID NO: 141]	< 500
Ac-VHVTIPANLWEWVRR-NH2 [peptide of SEQ ID NO: 116]	< 500
Ac-VHFQFPADLWNWVRR-NH2 [peptide of SEQ ID NO: 133]	< 500
Ac-VHVTIPAELWEWVRR-NH2 [peptide of SEQ ID NO: 111]	< 500
Ac-IMVTIPADLWDWINK-NH2 [peptide of SEQ ID NO: 3]	< 400
Ac-VHVTFPADLWEWVRR-NH2 [peptide of SEQ ID NO: 114]	< 500
Ac-VHFQFPADLWEWVRR-NH2 [peptide of SEQ ID NO: 130]	< 500
Ac-VHVYIPAELWEWVRR-NH2 [peptide of SEQ ID NO: 122]	< 500

Now from value to binder:

IC50 in IL-17RA/IL7RC dimerization assay [nM]	Binder
< 500	Ac-VHFTIPQDWWEWVRR-NH2 [peptide of SEQ ID NO: 146]
< 500	Ac-VHFQIPQDLYNFFRR-NH2 [peptide of SEQ ID NO: 153]
< 500	Ac-VHFQFPQDLWEWVRR-NH2 [peptide of SEQ ID NO: 150]
< 500	Ac-VHFTFPQDLYNFVRR-NH2 [peptide of SEQ ID NO: 148]
< 500	Ac-VHVTIPADLYNFFRR-NH2 [peptide of SEQ ID NO: 149]
< 500	Ac-VHFTIPADFWEWFRR-NH2 [peptide of SEQ ID NO: 142]
< 500	Ac-VHFTIPQDLYNWRR-NH2 [peptide of SEQ ID NO: 151]
< 500	Ac-VHVTFPADLWEWFRR-NH2 [peptide of SEQ ID NO: 144]
< 10000	Ac-AHVTIPADLWDWINK-NH2 [peptide of SEQ ID NO: 158]
< 500	Ac-VPGAGVPGAGIHVTIPA-NH2 [peptide of SEQ ID NO: 157]
< 500	Ac-VHFQFPQEWYNWFRR-NH2 [peptide of SEQ ID NO: 154]
< 500	Ac-VHVTIPQDFWEWFRR-NH2 [peptide of SEQ ID NO: 145]
< 10000	Ac-GHVTIPADLWDWINK-NH2 [peptide of SEQ ID NO: 159]
< 500	Ac-VHVQIPADFWEWFRR-NH2 [peptide of SEQ ID NO: 143]
< 500	Ac-VHFTFPQDLYNWVRR-NH2 [peptide of SEQ ID NO: 147]
< 500	Ac-VHFTIPADLYNFVRR-NH2 [peptide of SEQ ID NO: 152]
< 500	Ac-VPGAGVPGAGIHVTI-NH2 [peptide of SEQ ID NO: 156]
< 500	Ac-VRFQFGQEWYNFFRR-NH2 [peptide of SEQ ID NO: 155]
